We go through three substances from PMC5849717.

For assay [1], the target named is FLAG-mYFP-β2AR (β2-adrenergic receptor), total receptor pulled down with anti-FLAG (mouse) (UniProt P18762). The assay is described as follows: single-molecule pulldown (SiMPull) with photobleaching step analysis; lysates (10 mM Tris pH 7.9, 0.1% DDM, 150 mM NaCl, 2 mM EDTA) of cells expressing mYFP-tagged receptor, untreated or ISO 5 min; captured on slides by biotinylated anti-FLAG or by phospho-specific β2AR antibodies with biotinylated secondary IgG; TIRF; bleaching steps of mYFP counted; percent dimer calculated assuming 75% active mYFP.

The target is the same in assay [2]. The assay is described as follows: single-molecule pulldown (SiMPull) with two-colour co-localisation; FLAG-mYFP-β2AR and FLAG-mCherry-β2AR co-expressed 1:1 in HEK293, ISO-treated; lysate pulled down with anti-FLAG or phospho-specific antibodies; mCherry and mYFP spots within 1 pixel (~150 nm) counted as co-localised; overlap = co-localised mYFP / total mYFP; reference mCherry-mYFP fusion gives 58.8% overlap.

For assay [3], the target named is GRK-phosphorylated β2AR (FLAG-mYFP-β2AR pulled down with anti-pS355/356) (mouse) (UniProt P18762). The assay can be described thus: single-molecule pulldown (SiMPull) with photobleaching step analysis; lysates (10 mM Tris pH 7.9, 0.1% DDM, 150 mM NaCl, 2 mM EDTA) of cells expressing mYFP-tagged receptor, untreated or ISO 5 min; captured on slides by biotinylated anti-FLAG or by phospho-specific β2AR antibodies with biotinylated secondary IgG; TIRF; bleaching steps of mYFP counted; percent dimer calculated assuming 75% active mYFP.

The target is the same in assay [4]. The description is as above. This is another data set of the same source.
Assay [5] has the same target. The assay can be described thus: single-molecule pulldown (SiMPull) with two-colour co-localisation; FLAG-mYFP-β2AR and FLAG-mCherry-β2AR co-expressed 1:1 in HEK293, ISO-treated; lysate pulled down with anti-FLAG or phospho-specific antibodies; mCherry and mYFP spots within 1 pixel (~150 nm) counted as co-localised; overlap = co-localised mYFP / total mYFP; reference mCherry-mYFP fusion gives 58.8% overlap.

Assay [6] addresses PKA-phosphorylated β2AR (FLAG-mYFP-β2AR pulled down with anti-pS261/262) (mouse) (UniProt P18762). The assay is described as follows: single-molecule pulldown (SiMPull) with photobleaching step analysis; lysates (10 mM Tris pH 7.9, 0.1% DDM, 150 mM NaCl, 2 mM EDTA) of cells expressing mYFP-tagged receptor, untreated or ISO 5 min; captured on slides by biotinylated anti-FLAG or by phospho-specific β2AR antibodies with biotinylated secondary IgG; TIRF; bleaching steps of mYFP counted; percent dimer calculated assuming 75% active mYFP.

The target is the same in assay [7]. The assay can be described thus: single-molecule pulldown (SiMPull) with two-colour co-localisation; FLAG-mYFP-β2AR and FLAG-mCherry-β2AR co-expressed 1:1 in HEK293, ISO-treated; lysate pulled down with anti-FLAG or phospho-specific antibodies; mCherry and mYFP spots within 1 pixel (~150 nm) counted as co-localised; overlap = co-localised mYFP / total mYFP; reference mCherry-mYFP fusion gives 58.8% overlap.

One may read the stoichiometry N as the number of molecules, sites or subunits per partner or assembly.

Where two headings read alike, the source gives them in different places.

GRK-phosphorylated β2AR (FLAG-mYFP-β2AR pulled down with anti-pS355/356), P18762 1-418 (receptor; phosphoserine at 355/356; phosphoserine at 355/356; other documents disagree on this pair), sequence (P18762 whole entry): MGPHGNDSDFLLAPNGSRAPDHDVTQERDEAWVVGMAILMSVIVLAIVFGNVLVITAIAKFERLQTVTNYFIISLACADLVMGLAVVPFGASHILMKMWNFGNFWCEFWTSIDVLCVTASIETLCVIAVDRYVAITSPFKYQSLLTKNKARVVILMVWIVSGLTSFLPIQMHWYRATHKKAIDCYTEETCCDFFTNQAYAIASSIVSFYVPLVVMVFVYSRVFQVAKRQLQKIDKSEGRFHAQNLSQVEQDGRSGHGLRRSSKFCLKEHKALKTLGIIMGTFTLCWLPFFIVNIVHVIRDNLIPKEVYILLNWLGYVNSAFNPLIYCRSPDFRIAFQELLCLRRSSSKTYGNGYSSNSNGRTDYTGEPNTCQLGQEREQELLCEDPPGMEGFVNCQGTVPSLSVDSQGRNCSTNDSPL
FLAG-mYFP-β2AR (β2-adrenergic receptor), total receptor pulled down with anti-FLAG, P18762 1-418 (receptor; other documents disagree on this pair), sequence (P18762 whole entry): as above
PKA-phosphorylated β2AR (FLAG-mYFP-β2AR pulled down with anti-pS261/262), P18762 1-418 (receptor; phosphoserine at 261/262; phosphoserine at 261/262; other documents disagree on this pair), sequence (P18762 whole entry): as above

“FLAG-mYFP-β2AR (β2-adrenergic receptor), total receptor pulled down with anti-FLAG, P18762 1-418 (receptor; other documents disagree on this pair)”: in assay [1], the percent dimers is 42.7% and the stoichiometry N is 2. The substance also displayed a percent overlap between mYFP and mCherry copies in assay [2] of 13.2%.

With “GRK-phosphorylated β2AR (FLAG-mYFP-β2AR pulled down with anti-pS355/356), P18762 1-418 (receptor; phosphoserine at 355/356; phosphoserine at 355/356; other documents disagree on this pair)”, in assay [3], the percent dimers was 12%. Also, the percent monomers in assay [3] is 88%; in assay [4], 86.5%. The percent overlap between mYFP and mCherry copies in assay [5] was below 3.2%.

On to “PKA-phosphorylated β2AR (FLAG-mYFP-β2AR pulled down with anti-pS261/262), P18762 1-418 (receptor; phosphoserine at 261/262; phosphoserine at 261/262; other documents disagree on this pair)”, for which, in assay [6], the percent dimers is 68.8% and the stoichiometry N is 2. Also, the percent overlap between mYFP and mCherry copies in assay [7] is above 20.4%.
